{"source": "the nanobody polyreactivity screen of Harvey et al. (2022)", "data": [{"experiment": "yeast display, Sf9 membrane polyspecificity reagent, FACS + sequencing; frameworks hold sequencing errors", "how_it_was_run": "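A nanobody's polyreactivity label depends on the gate it was sorted from. Yeast display cells were stained with 10% biotinylated, detergent-solubilized Sf9 membrane reagent for 1 hour at 4 °C, enriched on streptavidin microbeads and sorted by FACS. The low and high (top ~1%) gates were set on anti-HA fluorescence for expression and streptavidin fluorescence for reagent binding.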", "values": [{"sequence": "QVQLVESGGGLVQAGGSLRLSCAASGSTFKYYAMGWYRQAPGKERELVASITRTGSSTYYADSVKGRFTISRDNAKNTVYLQMNSRKPEDTAVYYCNTGPHSVWWHYGYDYWGQGTQVTVSS", "polyreactivity (PSR sort gate)": "high polyreactivity"}, {"sequence": "QVQLVESGGGLVQAGGSLRLSCAASGSTFLANTMGWYRQAPGKEREFVAAITRRGGSTYYADSVKGRFTISRDNAKNTVYLQMNSLKPEDTAVYYCNAEWDFQYPYDYWGQGTQVTVSS", "polyreactivity (PSR sort gate)": "low polyreactivity"}, {"sequence": "QVQLVESGGGLVQAGGSLRLSCAASGSTFLDNAMGWYRQAPGKERELVASITSSGGNTYYADSVKGRFTISRDNAKNTVYLQLNSLTPEDTAVYYCAADAASYWRYNSANYDYDYWGQGTQVTVSS", "polyreactivity (PSR sort gate)": "low polyreactivity"}, {"sequence": "QVQLVESGGGLVQAGGSLRLSCAASGSTFLGNAMGWYRQAPGKERELVAGITSGGTTNFADSVKGRFTISRDNAKNTVYLQMNSLKPEDTAVYYCNADVWIGQRLDPGYDFDYWGQGTQVTVSS", "polyreactivity (PSR sort gate)": "low polyreactivity"}, {"sequence": "QVQLVESGGGLVQAGGSLRLSCAASGSTFLGNAMGWYRQAPGKERELVATITGSSGSTYYADSVKGRFTISRDNAKNTVYLQMNSLKPEDTAVYYCAAQRRVVGRHGLSLIRYDYWGQGTQVTVSS", "polyreactivity (PSR sort gate)": "low polyreactivity"}, {"sequence": "QVQLVESGGGLVQAGGSLRLSCAASGSTFLGNVMGWYRQAPGKERELVAAISRGGSRTYYADSVKGRFTISRDNAKNTVYLQMNSLKPEDTAVYYCAAEPYAASRSGEFNYWGQGTQVTVSS", "polyreactivity (PSR sort gate)": "low polyreactivity"}, {"sequence": "QVQLVESGGGLVQAGGSLRLSCAASGSTFLGNVMGWYRQAPGKERELVAAITSTGGNTYYADSVKGRFTISRDNAKNTVYLQMNSLKPEDTAVYYCAKKYVWTHNYWGQGTQVTVSS", "polyreactivity (PSR sort gate)": "low polyreactivity"}, {"sequence": "QVQLVESGGGLVQAGGSLRLSCAASGSTFLGYDMGWYRQAPGKERELVAAISIGGSTYYADSVKGRFTISRDNAKNTVYLQMNSLKPEDTAVYYCARVTWGHQVIYGLSDYDSWGQGTQVTVSS", "polyreactivity (PSR sort gate)": "low polyreactivity"}, {"sequence": "QVQLVESGGGLVQAGGSLRLSCAASGSTFLHSAMGWYRQAPGKEREFTYYADSVKGRFTISRDNAKNTVYLQMHSLKPEDTAGYYCNAGPYWSPYGDDVGYWGQGTQVTVSS", "polyreactivity (PSR sort gate)": "low polyreactivity"}, {"sequence": "QVQLVESGGGLVQAGGSLRLSCAASGSTFLINAMGWYRQAPGKERELVAAISRDGSTNYADSVKGRFTISRDNAKNTVYLQMNSLKPEDTAVYYCAAVQGISVGRQPGYDYDYWGQGTQVTVSS", "polyreactivity (PSR sort gate)": "low polyreactivity"}, {"sequence": "QVQLVESGGGLVQAGGSLRLSCAASGSTFLLYAMGWYRPAPGKERELVATISWGGDGTYYADSVKGRFTISRDNAKNTVYLQMNSLKPEDTAVYYCAAESYLVQFYFLYYYWGQGTQVTVSS", "polyreactivity (PSR sort gate)": "low polyreactivity"}, {"sequence": "QVQLVESGGGLVQAGGSLRLSCAASGSTFLLYAMGWYRQEPGKERELVAAITWSGASTYYADSVKGRFTISRDNAKNTVYLQMNSLKPEDTAVYYCATRYRYRYWGQGTQVTVSS", "polyreactivity (PSR sort gate)": "high polyreactivity"}, {"sequence": "QVQLVESGGGLVQAGGSLRLSCAASGSTFLLYDKGWYRQAPGKERELVAAITWSGGSTYYADSVKGRFTISRDNAKNTVYVQMNSLIPEDTAVYYCAADSLGDRYYYWGQGTQVTVSS", "polyreactivity (PSR sort gate)": "low polyreactivity"}, {"sequence": "QVQLVESGGGLVQAGGSLRLSCAASGSTFLPYGMGWYRQAPGKERELVAAITQRGGSTYYADSVKGRFTISRDNAKNTVYLQMNSLKPEDTAVYYCAARYTGRRRLWTGPGYEYWGQGTQVTVSS", "polyreactivity (PSR sort gate)": "high polyreactivity"}, {"sequence": "QVQLVESGGGLVQAGGSLRLSCAASGSTFLRNVMGWYRQAPGKERELVAAISSRGGSTHYADSVKGRFTISRDNAKNTVYLQMNSLKPEDTAVYYCNSERTAAQYVRAAYDYWGQGTQVTVSS", "polyreactivity (PSR sort gate)": "low polyreactivity"}, {"sequence": "QVQLVESGGGLVQAGGSLRLSCAASGSTFLRYAMGWYRQAPGKERELVAAISVSGGSTYYADSVKGRFTISRDNAKNTVYLQMNSLKPEDTAVYYCNAVTKFHRRYNYWGQGTQVTVSS", "polyreactivity (PSR sort gate)": "high polyreactivity"}, {"sequence": "QVQLVESGGGLVQAGGSLRLSCAASGSTFLSYAMGWYRQAPGKERELVAAISCRGGSTYYADSVKGRFTISRDNAKNTVYLQMNSLKPEDTAVYYCARVYRPSADTYNYWGQGTKVTVSS", "polyreactivity (PSR sort gate)": "high polyreactivity"}, {"sequence": "QVQLVESGGGLVQAGGSLRLSCAASGSTFLSYAMGWYRQAPGTERELVAGIDWSTGDTYYADSEKGRFTISRDNAKNTVYLQMNSLKPEDTAVYYCNKANLYRFWEIDYWGQGTQVTLSS", "polyreactivity (PSR sort gate)": "high polyreactivity"}, {"sequence": "QVQLVESGGGLVQAGGSLRLSCAASGSTFLTNAIGWYRQATGKEREIVADITWSGGSTYYADSVKGRFTISRDNAKNTVYLQMNSLKPEDTAVYYCAVDAYSSVYLWGFVRFDYWGQGTQVTVSS", "polyreactivity (PSR sort gate)": "low polyreactivity"}, {"sequence": "QVQLVESGGGLVQAGGSLRLSCAASGSTFLTYAMGWYRQAPGKERELVAAIRWSGGSTYYADSVKGRFTISRDNAKNTVYLQMNSLKPEDTAVYYCAARSPRASGNSDYWGQGTQVTVSS", "polyreactivity (PSR sort gate)": "high polyreactivity"}, {"sequence": "QVQLVESGGGLVQAGGSLRLSCAASGSTFLVNAMGWYRQAPGKERELVAAISRSTGSTYYADSVKGRFTISRDNAKNTVYLQMNSLKPEDTAVYYCAVYRHGYGYNYWGQGSQVTVSS", "polyreactivity (PSR sort gate)": "high polyreactivity"}, {"sequence": "QVQLVESGGGLVQAGGSLRLSCAASGSTFLYYAMGWYIQAPGKERELVAAISRSGGNTYYADSVKGRFTISRDNAKNTVYLQMNSLKPEDTAVDYCAKSPPGRGIRRLYYYWGQGTQVTVSS", "polyreactivity (PSR sort gate)": "high polyreactivity"}, {"sequence": "QVQLVESGGGLVQAGGSLRLSCAASGSTFLYYAMGWYRPAPGKERELVAAIRWTAGSTYYADSVKGRFTISRDNAKNSVYLQMNSLKPEDTAVYYCAAVGYVRNYYTYEHWGQGTQVTVSS", "polyreactivity (PSR sort gate)": "low polyreactivity"}, {"sequence": "QVQLVESGGGLVQAGGSLRLSCAASGSTFLYYAMGWYRQAPGKERELVAVISWSCVSTYYADSVKGRFTISRDNAKYTVYLQMNSLKPEDTAVSYCAADWDWRFHRMNYWGQGTQVTVSS", "polyreactivity (PSR sort gate)": "low polyreactivity"}, {"sequence": "QVQLVESGGGLVQAGGSLRLSCAASGSTFLYYAMGWYRQAPGKERELVAVISWSGVSTYYADSVKGRFTISRYNAKNTVYLQMNSLKPEDTAVYYCNTGNHYIRTYGYWGLGTQVTVSS", "polyreactivity (PSR sort gate)": "low polyreactivity"}, {"sequence": "QVQLVESGGGLVQAGGSLRLSCAASGSTFLYYGMGWYRQAPGKERALVAGIDGTGSSTYYADSVKGRFTISRDNAKNTVYLQMNSLKPEDTAVYYCAKRYPRYRSRYYYWGQGTQVTVSS", "polyreactivity (PSR sort gate)": "low polyreactivity"}, {"sequence": "QVQLVESGGGLVQAGGSLRLSCAASGSTFNDNAMGWYRPAPGKERELVAAIRWSGGSTYYADSVKGRFTISRDNAKNTVYLQMNSLKPEDTAVYYCAASRRYYLTYRYYYWGQGTQVTVSS", "polyreactivity (PSR sort gate)": "high polyreactivity"}, {"sequence": "QVQLVESGGGLVQAGGSLRLSCAASGSTFNDNAMGWYRQAPGKERELVAAIRWSGGSTYYADSVKGRFTISRDNAKNTVYLQMNSLKPEDTAVYYCAASRRYYLTYRYYYWGQGTQVTVSS", "polyreactivity (PSR sort gate)": "high polyreactivity"}, {"sequence": "QVQLVESGGGLVQAGGSLRLSCAASGSTFNEYVMGWYRQAPGKERELVAAITGGGGRTYYADSVKGRFTISRDNAKNTVYLQMNSQKPEDTAVYYCAKRYLYGTYWGFFRYDYWGQGTQVTVSS", "polyreactivity (PSR sort gate)": "low polyreactivity"}, {"sequence": "QVQLVESGGGLVQAGGSLRLSCAASGSTFNKYAMGWYRQAPGKERELVAAIRSNGVRTYYADSVKGRFTISRDNAKNTVYLQMNSLKPEDTAVYYCNKRYTYRYDYWGQGTQVTVSS", "polyreactivity (PSR sort gate)": "high polyreactivity"}, {"sequence": "QVQLVESGGGLVQAGGSLRLSCAASGSTFNPYAMAWYRQAPGKEREFVAAISWRGGSTYYADSVKGRFTISRDNAKNTVYLQMNSLKPEDTAVYYCAARRLYSHTTSGRGYWGQGTQVTVSS", "polyreactivity (PSR sort gate)": "high polyreactivity"}, {"sequence": "QVQLVESGGGLVQAGGSLRLSCAASGSTFNPYAMGWYRQAPGKERELVATITWRGTSTYYADSVKGRFTISRDNAKNTVYLQMNSLKPEDTPVYYCAARVRYKYDYWGQGTQVTVSS", "polyreactivity (PSR sort gate)": "high polyreactivity"}, {"sequence": "QVQLVESGGGLVQAGGSLRLSCAASGSTFNRNAMGWYRQAPGKERELVAAISWRGDSTSYADSVKGRFTISRDNAKNTVYLQMNSLKPEDTAVYYCAAYRVILYYLYDYWGQGTQVTVSS", "polyreactivity (PSR sort gate)": "low polyreactivity"}, {"sequence": "QVQLVESGGGLVQAGGSLRLSCAASGSTFNRNAMGWYRQAPGKERELVADISRGGRTYYSDSVKGRFTITRDNAKNTVYLQMNSLKPEDTAVFYCATVVSRGKQPFDMDYWGQGTQVTVSS", "polyreactivity (PSR sort gate)": "low polyreactivity"}, {"sequence": "QVQLVESGGGLVQAGGSLRLSCAASGSTFNRNTMGWYRQAPGKERELLAAISRRGGSTYYADSVKGRFTISRDNAKNTVYLQMNSLKPEDTAVYYCAAGREYRVYKGAQEFDYWGQGTQVTVSS", "polyreactivity (PSR sort gate)": "high polyreactivity"}, {"sequence": "QVQLVESGGGLVQAGGSLRLSCAASGSTFNRNTMGWYRQAPGKERELVAAITSSGGRTYYADSVKGRFTISRDNAKNTVYLQVNSLKPEDTAVYYCANVIRVLIAGRFDSWGQGTHVTVSS", "polyreactivity (PSR sort gate)": "high polyreactivity"}, {"sequence": "QVQLVESGGGLVQAGGSLRLSCAASGSTFNRYAMGWYRQAPGKERELVAAISLSGGSTYYADSVKGRFTISRDNAKNTVYLQMNSLKPEDTAVYYCAADIFYYSSSYGYWGQGTQVTVSS", "polyreactivity (PSR sort gate)": "low polyreactivity"}, {"sequence": "QVQLVESGGGLVQAGGSLRLSCAASGSTFNRYAMGWYRQAPGKERELVASISCSGGGSTYYADSVKGRFTISRDNAKNTVYLQMNSLKPEDTAVYYCAVSRDSYGGKGSVLYDYWGQGTQVTVSS", "polyreactivity (PSR sort gate)": "low polyreactivity"}, {"sequence": "QVQLVESGGGLVQAGGSLRLSCAASGSTFNSYAMGWYRQAPGKEWELVAAITSSVGSTYYADSVKGRFTISRDNAKNTVYLQMNSLKPEDTAVYYCAADYFSFWYFSGYDYWGQGTQVTVSS", "polyreactivity (PSR sort gate)": "low polyreactivity"}, {"sequence": "QVQLVESGGGLVQAGGSLRLSCAASGSTFNSYVMGWYRQAPGKERELVAAITSSGSTYYADSVKGRFTISRDNAKNTVYLQMNSLKPEDTAVYYCNAQDAWEWQGVWVGARDDYDYWGQGTQVTVSS", "polyreactivity (PSR sort gate)": "low polyreactivity"}]}]}
